Measured values: patent US20220396632A1 (VERSEAU THERAPEUTICS, published 2022)

How the values were obtained:
[1] = target: T1, PSGL-1 endogenously expressed on HL-60 cells (UniProt Q14242 42-412); assay: flow cytometry on HL-60 cells
T1 construct: whole, on cells
T1 sequence (looked up): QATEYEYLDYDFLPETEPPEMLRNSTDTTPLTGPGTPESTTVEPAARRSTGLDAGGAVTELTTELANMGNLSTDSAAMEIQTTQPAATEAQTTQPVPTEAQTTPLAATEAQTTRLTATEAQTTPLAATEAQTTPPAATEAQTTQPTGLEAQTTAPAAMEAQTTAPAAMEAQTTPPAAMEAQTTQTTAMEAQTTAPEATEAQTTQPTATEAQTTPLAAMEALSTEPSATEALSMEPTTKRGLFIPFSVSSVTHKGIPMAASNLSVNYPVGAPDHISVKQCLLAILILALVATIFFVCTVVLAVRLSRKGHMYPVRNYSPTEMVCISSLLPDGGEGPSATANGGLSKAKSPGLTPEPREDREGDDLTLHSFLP
Method: (§1) A typical flow cytometry assay was performed by resuspending HL-60 cells in FACS buffer (5% FBS and 0.05% Sodium Azide in PBS, pH 7.2) on ice, pelleting cells by centrifugation at 500×g for 3 min, washing cells with FACS buffer, and then blocking Fc receptors on the cells with Fc block (human TruStain FcX™, BioLegend Cat. #422302) on ice for 10 min. After washing, 50,000 cells/50 ul in FACS buffer was added to each well of a 96-well round bottomed plate (Costar, Cat. #3797), and 50 ul of serially diluted (0.06 nM-1.0 uM) test or isotype control antibody was added into duplicate wells. The plate was covered and incubated on ice for 1 h. After washing, Phycoerythrin (PE) conjugated anti-human IgG secondary antibody (Abcam; Cat. #ab99825) was added to each well and the plate incubated in the dark on ice for 30 min. After washing, the cells were fixed (1% paraformaldhyde).

[2] = target: T1, PSGL-1 endogenously expressed on HL-60 …; assay: flow cytometry on HL-60 cells; against parent 20I15
Method: as §1

B1: 20I15.001 (antibody, IgG4, V domains shown)
VH: EVQLVESGGGLVQPGGSLRLSCAASGFTFTDYYMSWVRQAPGKGLEWLGFIRNKANGYTTEYSASVKGRFTISRDNSKNSLYLQMNSLKTEDTAVYYCARTYLRRGYFDVWGQGTLVTVSS
VL: DIQLTQSPSTLSASVGDRVTITCRASKSVSTSGYSYMHWFQQKPGKAPKLLIYLASNLESGVPSRFSGSGSGTEFTLTISSLQPDDFATYYCQHSRELPLTFGQGTKLEIK
notes: Humanised; also called 20115.001
EC50 [1]: 0.5 nM
HL-60 EC50 (normalized) [2]: 0.4 fold

B2: 20I15.002 (antibody, IgG4, V domains shown)
VH: EVQLVESGGGLVQPGGSLRLSCAASGFTFTDYYMSWVRQAPGKGLEWLGFIRNKASGYTTEYSASVKGRFTISRDNSKNSLYLQMNSLKTEDTAVYYCARTYLRRGYFDVWGQGTLVTVSS
VL: DIQLTQSPSTLSASVGDRVTITCRASKSVSTSGYSYMHWFQQKPGKAPKLLIYLASNLESGVPSRFSGSGSGTEFTLTISSLQPDDFATYYCQHSRELPLTFGQGTKLEIK
notes: Humanised
EC50 [1]: 1 nM
HL-60 EC50 (normalized) [2]: 0.7 fold

B3: 20I15.003 (antibody, IgG4, V domains shown)
VH: EVKLVESGGGLVQPGGSLRLSCAASGFTFTDYYMSWVRQAPGKGLEWLGFIRNKANGYTTEYSASVKGRFTISRDNSQNSLYLQMNSLKTEDTAVYYCARTYLRRGYFDVWGQGTLVTVSS
VL: DIQLTQSPSTLSASVGDRVTITCRASKSVSTSGYSYMHWFQQKPGKAPKLLIYLASNLESGVPSRFSGSGSGTEFTLTISSLQPDDFATYYCQHSRELPLTFGQGTKLEIK
notes: Humanised
EC50 [1]: 1.6 nM
HL-60 EC50 (normalized) [2]: 1.1 fold

B4: 20I15.004 (antibody, IgG4, V domains shown)
VH: EVKLVESGGGLVQPGGSLRLSCAASGFTFTDYYMSWVRQAPGKGLEWLGFIRNKAQGYTTEYSASVKGRFTISRDNSQNSLYLQMNSLKTEDTAVYYCARTYLRRGYFDVWGQGTLVTVSS
VL: DIQLTQSPSTLSASVGDRVTITCRASKSVSTSGYSYMHWFQQKPGKAPKLLIYLASNLESGVPSRFSGSGSGTEFTLTISSLQPDDFATYYCQHSRELPLTFGQGTKLEIK
notes: Humanised
EC50 [1]: 1 nM
HL-60 EC50 (normalized) [2]: 0.7 fold

B5: 20I15.005 (antibody, IgG4, V domains shown)
VH: EVQLVESGGGLVQPGGSLRLSCAASGFTFTDYYMSWVRQAPGKGLEWLGFIRNKANGYTTEYSASVKGRFTISRDNSKNSLYLQMNSLKTEDTAVYYCARTYLRRGYFDVWGQGTLVTVSS
VL: DIVLTQSPSTLSASVGDRVTITCRASKSVSTSGYSYMHWFQQKPGKAPKLLIYLASNLESGVPSRFSGSGSGTDFTLTISSLQPDDFATYYCQHSRELPLTFGQGTKLEIK
notes: Humanised
EC50 [1]: 1.3 nM
HL-60 EC50 (normalized) [2]: 0.9 fold

B6: 20I15.006 (antibody, IgG4, V domains shown)
VH: EVQLVESGGGLVQPGGSLRLSCAASGFTFTDYYMSWVRQAPGKGLEWLGFIRNKASGYTTEYSASVKGRFTISRDNSKNSLYLQMNSLKTEDTAVYYCARTYLRRGYFDVWGQGTLVTVSS
VL: DIVLTQSPSTLSASVGDRVTITCRASKSVSTSGYSYMHWFQQKPGKAPKLLIYLASNLESGVPSRFSGSGSGTDFTLTISSLQPDDFATYYCQHSRELPLTFGQGTKLEIK
notes: Humanised
EC50 [1]: 0.8 nM
HL-60 EC50 (normalized) [2]: 0.6 fold

B7: 20I15.007 (antibody, IgG4, V domains shown)
VH: EVKLVESGGGLVQPGGSLRLSCAASGFTFTDYYMSWVRQAPGKGLEWLGFIRNKANGYTTEYSASVKGRFTISRDNSQNSLYLQMNSLKTEDTAVYYCARTYLRRGYFDVWGQGTLVTVSS
VL: DIVLTQSPSTLSASVGDRVTITCRASKSVSTSGYSYMHWFQQKPGKAPKLLIYLASNLESGVPSRFSGSGSGTDFTLTISSLQPDDFATYYCQHSRELPLTFGQGTKLEIK
notes: Humanised
EC50 [1]: 0.8 nM
HL-60 EC50 (normalized) [2]: 0.6 fold

B8: 20I15.008 (antibody, IgG4, V domains shown)
VH: EVKLVESGGGLVQPGGSLRLSCAASGFTFTDYYMSWVRQAPGKGLEWLGFIRNKAQGYTTEYSASVKGRFTISRDNSQNSLYLQMNSLKTEDTAVYYCARTYLRRGYFDVWGQGTLVTVSS
VL: DIVLTQSPSTLSASVGDRVTITCRASKSVSTSGYSYMHWFQQKPGKAPKLLIYLASNLESGVPSRFSGSGSGTDFTLTISSLQPDDFATYYCQHSRELPLTFGQGTKLEIK
notes: Humanised
EC50 [1]: 1.6 nM
HL-60 EC50 (normalized) [2]: 1.1 fold
